One molecule from CN117384291A (WUHAN ABCLONAL INC, dated 2024) can be followed below.

The assay has as its target T1, 人SALL4蛋白 (human, UniProt Q9UJQ4 1-1053, limits assumed).
T1 construct: Endogenous SALL4 in fixed tissue sections; also called human SALL4
T1 sequence (looked up): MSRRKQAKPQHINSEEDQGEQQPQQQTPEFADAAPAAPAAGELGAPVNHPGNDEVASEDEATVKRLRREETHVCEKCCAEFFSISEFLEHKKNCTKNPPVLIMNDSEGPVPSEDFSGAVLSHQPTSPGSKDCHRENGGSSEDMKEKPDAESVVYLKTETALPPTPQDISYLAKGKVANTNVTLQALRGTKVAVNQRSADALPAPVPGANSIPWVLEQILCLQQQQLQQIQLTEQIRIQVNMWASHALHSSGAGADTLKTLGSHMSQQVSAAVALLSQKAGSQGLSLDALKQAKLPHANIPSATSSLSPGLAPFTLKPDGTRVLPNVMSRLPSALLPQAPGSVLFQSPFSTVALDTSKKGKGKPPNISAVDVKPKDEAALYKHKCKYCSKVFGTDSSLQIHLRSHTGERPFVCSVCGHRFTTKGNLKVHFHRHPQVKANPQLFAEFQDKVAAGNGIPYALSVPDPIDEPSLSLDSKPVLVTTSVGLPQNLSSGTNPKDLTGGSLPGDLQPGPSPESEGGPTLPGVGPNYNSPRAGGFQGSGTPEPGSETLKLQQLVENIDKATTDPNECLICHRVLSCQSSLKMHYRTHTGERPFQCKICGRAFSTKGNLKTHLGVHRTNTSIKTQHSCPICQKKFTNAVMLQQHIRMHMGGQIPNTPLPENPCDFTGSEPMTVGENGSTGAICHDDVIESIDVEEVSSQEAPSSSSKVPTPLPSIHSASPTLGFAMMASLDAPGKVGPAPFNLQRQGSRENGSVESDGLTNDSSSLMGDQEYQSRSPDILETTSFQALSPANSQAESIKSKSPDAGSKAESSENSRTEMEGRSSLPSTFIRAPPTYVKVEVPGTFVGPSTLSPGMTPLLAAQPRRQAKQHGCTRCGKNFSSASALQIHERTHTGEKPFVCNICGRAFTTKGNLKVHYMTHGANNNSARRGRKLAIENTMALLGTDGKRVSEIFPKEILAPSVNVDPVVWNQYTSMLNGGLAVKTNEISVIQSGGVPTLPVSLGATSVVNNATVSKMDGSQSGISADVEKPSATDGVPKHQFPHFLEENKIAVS
As to the kind of experiment: IHC on paraffin sections of human seminoma, primary antibody 1:100.

B1: 抗人SALL4兔单克隆抗体 (antibody, V domains shown)
VH: QSLEESGGRLVTPGGSLTLTCTVSGFSLSSNSITWVRQAPGKGLEWIGTMNIDNSTYYMSWAKGRLTISKTSTTVTLKMTSLTTEDTATYFCARIAVVSNTDIWGPGTLVTVSF
VL: AQALTQTPSSVSAAVGGTVTISCQSSQNVYDANALSWYQQKPGQPPKRLIYSASTLASGVPSRFKGSGSGTQFTLTISGVQCDDAASYYCAGVYYGKIGFGGGTEVVVKG
notes: also called 试验例2制备的抗人SALL4兔单克隆抗体; 识别人SALL4的兔单克隆抗体
B1: the binding result is recorded as “binds”.
